Data set [1] addresses T1, MutS (Escherichia coli, UniProt P23909 1-853).
T1 sequence: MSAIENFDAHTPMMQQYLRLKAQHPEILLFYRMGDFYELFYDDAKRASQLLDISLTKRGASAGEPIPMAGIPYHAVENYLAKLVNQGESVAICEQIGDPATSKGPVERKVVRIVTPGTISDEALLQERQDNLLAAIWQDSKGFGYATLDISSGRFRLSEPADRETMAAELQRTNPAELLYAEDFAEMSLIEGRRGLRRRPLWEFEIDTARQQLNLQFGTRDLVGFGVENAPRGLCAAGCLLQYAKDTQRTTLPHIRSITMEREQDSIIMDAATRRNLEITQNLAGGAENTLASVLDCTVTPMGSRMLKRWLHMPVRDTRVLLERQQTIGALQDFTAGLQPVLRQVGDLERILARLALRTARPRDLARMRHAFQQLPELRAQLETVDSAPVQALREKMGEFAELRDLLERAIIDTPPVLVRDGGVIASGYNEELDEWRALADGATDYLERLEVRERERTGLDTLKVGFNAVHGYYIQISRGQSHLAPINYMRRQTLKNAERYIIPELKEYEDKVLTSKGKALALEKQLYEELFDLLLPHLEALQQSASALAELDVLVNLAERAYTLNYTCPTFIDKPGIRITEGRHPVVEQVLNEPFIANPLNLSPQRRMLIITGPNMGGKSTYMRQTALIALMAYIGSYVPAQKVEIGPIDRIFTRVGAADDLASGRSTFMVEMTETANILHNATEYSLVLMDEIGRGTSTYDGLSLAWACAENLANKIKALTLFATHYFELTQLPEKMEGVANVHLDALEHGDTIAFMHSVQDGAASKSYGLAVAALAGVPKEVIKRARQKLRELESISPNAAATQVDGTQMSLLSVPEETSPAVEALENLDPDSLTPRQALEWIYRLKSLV
Put plainly: FRET equilibrium titration.

In data set [2] the target is T1, MutS. In words: stopped-flow FRET kinetics.
Data set [3] addresses T1, MutS. In words: stopped-flow FRET kinetics. This is another data set of the same source.
Data set [4] addresses T1, MutS. In words: stopped-flow FRET kinetics. The source holds these as a separate data set.
For data set [5], the target named is T1, MutS. Put plainly: stopped-flow FRET kinetics. The source holds these as a separate data set.
The target of data set [6] is T1, MutS. In words: FRET equilibrium titration. This is another data set of the same source.
Data set [7] concerns the target T2, mutS-A842E (Escherichia coli, UniProt P23909 1-853, A842E).
T2 sequence: T1 sequence with A842E
Put plainly: EMSA.

In data set [8] the target is T1, MutS. Put plainly: stopped-flow FRET kinetics. The source holds these as a separate data set.
Data set [9] concerns the target T1, MutS. Put plainly: stopped-flow FRET kinetics. This is another data set of the same source.
For data set [10], the target named is T1, MutS. In words: FRET equilibrium titration. The source holds these as a separate data set.

Substitutions are numbered along the chain they refer to.

B1: 30-1ΔT (dsDNA)
DNA 1: AACTGCCAGGCACCAGTGTCAGCGTCGTAT
DNA 2: ATACGACGCTGACACTGGTGCCTTGGCAGTT
B1: the Kd in data set [1] came to 0.056 µM; in data set [2] it was 0.091 µM; in [3] it was 0.039 µM; in [4] it was 0.321 µM; in data set [5] it was 0.05 µM; in data set [6] it was 0.123 µM. For the same molecule, the values for the Kd in data set [8], in [9] and in [10] were 0.027 µM, 0.137 µM and 0.062 µM, respectively. Also, the binding result in data set [7] is “binds”.
